The values that follow are results of earlier work, collected in paper PMC3433420.

Targets include ITK (Homo sapiens) (UniProt Q08881); VAV3 (Homo sapiens) (UniProt Q9UKW4); SLA2 (Homo sapiens) (UniProt Q9H6Q3); NCK2 (Homo sapiens) (UniProt O43639); PLCG1-C (Homo sapiens) (UniProt P19174); SLA (Homo sapiens) (UniProt Q13239); PIK3R1-NC (Homo sapiens) (UniProt P27986); SHC3 (Homo sapiens) (UniProt Q92529); PIK3R3-N (Homo sapiens) (UniProt Q92569); SH2D3C (Homo sapiens) (UniProt Q8N5H7); ABL2 (Homo sapiens) (UniProt P42684); SOCS2 (Homo sapiens) (UniProt O14508); SH2D3A (Homo sapiens) (UniProt Q9BRG2); SOCS1 (Homo sapiens) (UniProt O15524); PIK3R2-NC (Homo sapiens) (UniProt O00459); PTPN6-C (Homo sapiens) (UniProt P29350); DAPP1 (Homo sapiens) (UniProt Q9UN19); RASA1-NC (Homo sapiens) (UniProt P20936); SH2B2 (Homo sapiens) (UniProt O14492); HSH2D (Homo sapiens) (UniProt Q96JZ2).

Common to all, as to conditions: cited from earlier work
The target of data set [1] is BCAR3 (Homo sapiens) (UniProt O75815).
Sequence of BCAR3 (Homo sapiens) (O75815 149-258): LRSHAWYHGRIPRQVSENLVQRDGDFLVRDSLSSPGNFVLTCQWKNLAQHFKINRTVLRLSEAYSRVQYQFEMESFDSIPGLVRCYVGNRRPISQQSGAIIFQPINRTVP
For data set [2], the target named is CRKL (Homo sapiens) (UniProt P46109).
Sequence of CRKL (Homo sapiens) (P46109 9-107): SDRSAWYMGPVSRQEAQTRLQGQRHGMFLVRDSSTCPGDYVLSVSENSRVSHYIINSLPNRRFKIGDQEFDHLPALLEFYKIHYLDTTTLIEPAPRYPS
The target in data set [3] is SYK-NC (Homo sapiens) (UniProt P43405).
Data set [4] addresses PIK3R3-NC (Homo sapiens) (UniProt Q92569).
For data set [5] the target is unchanged. This is another data set of the same source.
The target in data set [6] is SHC1-PTB (Homo sapiens) (UniProt P29353).
Sequence of SHC1-PTB (Homo sapiens) (P29353 483-583): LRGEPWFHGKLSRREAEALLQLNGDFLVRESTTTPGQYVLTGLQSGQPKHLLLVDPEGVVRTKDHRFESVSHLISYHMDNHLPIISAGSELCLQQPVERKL
Data set [7] addresses CRKL (Homo sapiens) (UniProt P46109). This is another data set of the same source.
The target in data set [8] is SYK-NC (Homo sapiens) (UniProt P43405). The source holds these as a separate data set.
For data set [9], the target named is BCAR3 (Homo sapiens) (UniProt O75815). The source holds these as a separate data set.
Data set [10] addresses SHC1-PTB (Homo sapiens) (UniProt P29353). The source holds these as a separate data set.

Like-named read-outs stand apart in the source and are kept apart here.

Sequence of VAV3 (Homo sapiens) (Q9UKW4 667-771): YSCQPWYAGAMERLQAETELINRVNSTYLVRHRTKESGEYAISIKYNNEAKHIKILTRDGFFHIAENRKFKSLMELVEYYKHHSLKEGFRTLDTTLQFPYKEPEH
Sequence of SLA (Homo sapiens) (Q13239 79-180): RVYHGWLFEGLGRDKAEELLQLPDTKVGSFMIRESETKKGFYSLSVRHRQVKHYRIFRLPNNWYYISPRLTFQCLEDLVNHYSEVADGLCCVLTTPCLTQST
Sequence of RASA1-NC (Homo sapiens) (P20936 176-446): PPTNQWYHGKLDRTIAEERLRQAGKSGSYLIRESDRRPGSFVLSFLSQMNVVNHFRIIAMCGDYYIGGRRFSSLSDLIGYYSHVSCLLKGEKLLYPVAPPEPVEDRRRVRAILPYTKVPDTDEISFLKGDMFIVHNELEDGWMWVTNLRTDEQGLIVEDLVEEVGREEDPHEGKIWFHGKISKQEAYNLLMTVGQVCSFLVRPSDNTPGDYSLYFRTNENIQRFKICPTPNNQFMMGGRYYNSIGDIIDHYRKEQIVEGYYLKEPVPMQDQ
Sequence of SLA2 (Homo sapiens) (Q9H6Q3 89-196): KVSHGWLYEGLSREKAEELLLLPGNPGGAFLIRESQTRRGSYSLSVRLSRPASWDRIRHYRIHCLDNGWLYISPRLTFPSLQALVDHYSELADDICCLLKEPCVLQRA
Sequence of SHC3 (Homo sapiens) (Q92529 494-594): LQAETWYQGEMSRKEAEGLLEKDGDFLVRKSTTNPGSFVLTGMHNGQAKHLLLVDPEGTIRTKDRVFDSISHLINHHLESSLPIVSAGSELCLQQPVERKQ
Sequence of PLCG1-C (Homo sapiens) (P19174 545-761): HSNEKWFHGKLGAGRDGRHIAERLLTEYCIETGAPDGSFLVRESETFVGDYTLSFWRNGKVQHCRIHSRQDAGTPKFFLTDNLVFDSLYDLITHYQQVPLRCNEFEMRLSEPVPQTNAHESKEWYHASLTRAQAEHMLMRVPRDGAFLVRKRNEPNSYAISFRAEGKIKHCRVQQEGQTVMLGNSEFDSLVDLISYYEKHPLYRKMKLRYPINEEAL
Sequence of SOCS1 (Homo sapiens) (O15524 74-179): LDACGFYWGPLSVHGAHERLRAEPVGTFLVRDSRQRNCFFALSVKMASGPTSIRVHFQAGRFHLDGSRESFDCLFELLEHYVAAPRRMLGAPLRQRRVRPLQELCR
Sequence of NCK2 (Homo sapiens) (O43639 280-380): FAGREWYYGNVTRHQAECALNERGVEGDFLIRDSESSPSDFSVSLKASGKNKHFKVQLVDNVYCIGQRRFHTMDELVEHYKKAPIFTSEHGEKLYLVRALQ
Sequence of HSH2D (Homo sapiens) (Q96JZ2 29-130): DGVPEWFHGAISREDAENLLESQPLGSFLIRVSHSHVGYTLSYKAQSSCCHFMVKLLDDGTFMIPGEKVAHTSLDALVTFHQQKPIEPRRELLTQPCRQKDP
Sequence of PIK3R2-NC (Homo sapiens) (O00459 325-721): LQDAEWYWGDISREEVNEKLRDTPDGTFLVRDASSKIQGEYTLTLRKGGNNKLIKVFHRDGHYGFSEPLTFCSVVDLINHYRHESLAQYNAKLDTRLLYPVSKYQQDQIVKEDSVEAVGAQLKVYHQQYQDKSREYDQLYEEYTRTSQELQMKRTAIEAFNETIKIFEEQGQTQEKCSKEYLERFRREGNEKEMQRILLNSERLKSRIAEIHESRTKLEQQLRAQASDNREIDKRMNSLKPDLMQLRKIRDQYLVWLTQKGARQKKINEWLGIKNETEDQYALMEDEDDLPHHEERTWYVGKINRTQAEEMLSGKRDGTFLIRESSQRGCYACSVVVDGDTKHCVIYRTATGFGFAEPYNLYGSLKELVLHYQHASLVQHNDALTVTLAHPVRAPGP
Sequence of SH2D3A (Homo sapiens) (Q9BRG2 10-119): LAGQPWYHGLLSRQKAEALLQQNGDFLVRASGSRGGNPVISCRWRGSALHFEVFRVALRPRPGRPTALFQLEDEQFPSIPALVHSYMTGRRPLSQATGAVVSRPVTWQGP
Sequence of PTPN6-C (Homo sapiens) (P29350 1-218): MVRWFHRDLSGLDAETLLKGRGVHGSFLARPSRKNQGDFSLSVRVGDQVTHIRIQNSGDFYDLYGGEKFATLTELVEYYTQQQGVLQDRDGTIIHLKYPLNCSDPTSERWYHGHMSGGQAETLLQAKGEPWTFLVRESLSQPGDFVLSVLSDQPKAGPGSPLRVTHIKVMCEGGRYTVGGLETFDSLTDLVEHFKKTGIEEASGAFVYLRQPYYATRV
Sequence of ITK (Homo sapiens) (Q08881 234-343): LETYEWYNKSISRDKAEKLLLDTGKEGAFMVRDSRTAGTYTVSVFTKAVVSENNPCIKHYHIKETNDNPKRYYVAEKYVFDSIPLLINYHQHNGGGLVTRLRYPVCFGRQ
Sequence of DAPP1 (Homo sapiens) (Q9UN19 30-134): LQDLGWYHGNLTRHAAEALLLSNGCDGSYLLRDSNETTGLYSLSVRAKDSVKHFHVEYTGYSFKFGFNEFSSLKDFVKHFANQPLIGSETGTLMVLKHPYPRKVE
Sequence of PIK3R1-NC (Homo sapiens) (P27986 328-723): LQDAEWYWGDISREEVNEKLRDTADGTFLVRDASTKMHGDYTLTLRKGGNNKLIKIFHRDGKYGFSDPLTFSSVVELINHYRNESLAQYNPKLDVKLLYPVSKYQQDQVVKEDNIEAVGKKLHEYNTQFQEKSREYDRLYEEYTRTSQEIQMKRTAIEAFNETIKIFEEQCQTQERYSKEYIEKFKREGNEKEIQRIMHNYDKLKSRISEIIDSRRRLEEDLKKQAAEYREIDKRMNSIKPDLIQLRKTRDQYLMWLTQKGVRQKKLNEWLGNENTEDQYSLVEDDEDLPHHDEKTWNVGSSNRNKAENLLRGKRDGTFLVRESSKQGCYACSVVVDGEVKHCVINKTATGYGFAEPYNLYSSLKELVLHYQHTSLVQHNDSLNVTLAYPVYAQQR
Sequence of SH2B2 (Homo sapiens) (O14492 412-520): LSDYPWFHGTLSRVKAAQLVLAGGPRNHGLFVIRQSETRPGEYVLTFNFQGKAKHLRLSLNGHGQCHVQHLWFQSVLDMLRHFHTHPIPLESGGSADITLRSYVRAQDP
Sequence of ABL2 (Homo sapiens) (P42684 168-268): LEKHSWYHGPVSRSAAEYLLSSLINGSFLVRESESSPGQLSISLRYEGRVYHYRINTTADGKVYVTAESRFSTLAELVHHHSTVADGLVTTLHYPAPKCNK
Sequence of SOCS2 (Homo sapiens) (O14508 43-161): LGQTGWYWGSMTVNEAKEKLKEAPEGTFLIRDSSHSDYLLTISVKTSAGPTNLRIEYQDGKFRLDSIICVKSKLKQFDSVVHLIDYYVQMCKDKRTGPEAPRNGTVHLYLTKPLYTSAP
Sequence of SH2D3C (Homo sapiens) (Q8N5H7 215-324): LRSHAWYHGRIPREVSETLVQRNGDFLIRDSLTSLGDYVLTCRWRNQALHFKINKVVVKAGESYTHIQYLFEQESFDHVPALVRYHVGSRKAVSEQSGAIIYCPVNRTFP

…pYEEMRAFQ: the apparent Kd (screen) with ITK (Homo sapiens) is 499 nM; with VAV3 (Homo sapiens) it was 2000 nM; in the data set with SLA2 (Homo sapiens), 2000 nM; in the data set with NCK2 (Homo sapiens), 1370 nM; in the data set with BCAR3 (Homo sapiens) [1] it was 2000 nM; in the data set with CRKL (Homo sapiens) [2], 1250 nM. In addition, in the data set with PLCG1-C (Homo sapiens), the apparent Kd (screen) is 321 nM.
As for …pYLIPQQGFd, the apparent Kd (screen) with SYK-NC (Homo sapiens) [3] was 534 nM; in the data set with SLA (Homo sapiens) it was 2000 nM; with PIK3R3-NC (Homo sapiens) [4], 203 nM; with PIK3R3-NC (Homo sapiens) [5], 204 nM; in the data set with PIK3R1-NC (Homo sapiens) it was 295 nM; with SHC3 (Homo sapiens), 216 nM. The apparent Kd (screen) in the data set with PIK3R3-N (Homo sapiens) was 470 nM; with SH2D3C (Homo sapiens), 2000 nM.
As for …pYLVPQQGF, the apparent Kd (screen) in the data set with ABL2 (Homo sapiens), in the data set with SOCS2 (Homo sapiens), in the data set with SH2D3A (Homo sapiens), with SOCS1 (Homo sapiens), in the data set with PIK3R2-NC (Homo sapiens) and with SHC1-PTB (Homo sapiens) [6] was 2000 nM each time. Further, the apparent Kd (screen) in the data set with PTPN6-C (Homo sapiens), with CRKL (Homo sapiens) [7], with DAPP1 (Homo sapiens) and with RASA1-NC (Homo sapiens) was 2000 nM throughout.
For the substance …pYWDQDPPE, the apparent Kd (screen) with SYK-NC (Homo sapiens) [8] is 456 nM; in the data set with SH2B2 (Homo sapiens), 1470 nM; with BCAR3 (Homo sapiens) [9], 2000 nM; in the data set with HSH2D (Homo sapiens), 2000 nM; with SHC1-PTB (Homo sapiens) [10], 614 nM.
